Assay [1] deals with T1, Myostatin (R&D Systems, Catalogue number 788-G8-010/CF) (UniProt O14793).
T1 sequence (looked up): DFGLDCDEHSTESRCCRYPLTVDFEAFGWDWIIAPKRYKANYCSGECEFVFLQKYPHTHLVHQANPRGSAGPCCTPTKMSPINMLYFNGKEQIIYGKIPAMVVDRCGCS
As to the kind of experiment: cell-based or functional assay.

The target of assay [2] is Activin A (R&D Systems, Catalog number 338-AC-050 CF) (UniProt P08476). As to the kind of experiment: cell-based or functional assay.
The target is the same in assay [3]. As to the kind of experiment: BIAcore SPR; fusion captured on anti-human Fc; activin A as analyte (2.5-0.15 nM); lower end of the printed range 1-2 pM; fusion captured on anti-human Fc, activin A tested 2.5-0.15 nM.
A further assay has as its target FcRn receptor. Nature of the assay: FcRn binding, 'standard methods'.
The target of assay [4] is Fc Gamma Receptor RIA (R&D Systems, Catalog #1257-FC-050) (UniProt P12314). As to the kind of experiment: SPR; fusion immobilised on CM5 chip; Fc gamma receptor IA as analyte (62.5-0.49 nM).
The target in assay [5] is Activin A (R&D Systems, Catalog number 338-AC-050 CF) (UniProt P08476). As to the kind of experiment: BIAcore SPR; fusion captured on anti-human Fc; activin A as analyte (2.5-0.15 nM); upper end of the printed range 1-2 pM; fusion captured on anti-human Fc, activin A tested 2.5-0.15 nM.
The target in assay [6] is T1, Myostatin (R&D Systems, Catalogue number 788-G8-010/CF). As to the kind of experiment: BIAcore SPR; fusion captured on anti-human Fc; myostatin as analyte (5-0.31 nM).

Activin A (R&D Systems, Catalog number 338-AC-050 CF), sequence (P08476 311-426): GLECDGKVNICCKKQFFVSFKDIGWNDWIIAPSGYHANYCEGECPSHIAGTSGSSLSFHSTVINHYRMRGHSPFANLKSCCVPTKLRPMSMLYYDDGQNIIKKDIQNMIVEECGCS
monoFS315K(76,81,82)E-hFcLALA (Fc fusion), sequence (chain): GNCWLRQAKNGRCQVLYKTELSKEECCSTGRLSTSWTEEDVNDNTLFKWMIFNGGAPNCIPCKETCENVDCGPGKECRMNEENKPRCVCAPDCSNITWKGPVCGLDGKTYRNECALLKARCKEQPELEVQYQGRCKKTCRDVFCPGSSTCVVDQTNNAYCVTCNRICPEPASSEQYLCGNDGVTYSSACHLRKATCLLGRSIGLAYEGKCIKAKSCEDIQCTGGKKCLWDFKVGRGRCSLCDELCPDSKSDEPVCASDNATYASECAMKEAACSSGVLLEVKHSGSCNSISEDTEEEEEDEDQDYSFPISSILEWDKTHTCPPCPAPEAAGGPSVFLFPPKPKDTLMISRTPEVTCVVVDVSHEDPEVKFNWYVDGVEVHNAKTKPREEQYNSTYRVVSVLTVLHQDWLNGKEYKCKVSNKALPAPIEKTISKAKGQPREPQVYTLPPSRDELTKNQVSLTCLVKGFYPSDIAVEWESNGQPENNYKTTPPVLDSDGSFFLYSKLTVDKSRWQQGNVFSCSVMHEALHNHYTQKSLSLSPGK
Fc Gamma Receptor RIA (R&D Systems, Catalog #1257-FC-050), sequence (P12314 16-288 limits assumed): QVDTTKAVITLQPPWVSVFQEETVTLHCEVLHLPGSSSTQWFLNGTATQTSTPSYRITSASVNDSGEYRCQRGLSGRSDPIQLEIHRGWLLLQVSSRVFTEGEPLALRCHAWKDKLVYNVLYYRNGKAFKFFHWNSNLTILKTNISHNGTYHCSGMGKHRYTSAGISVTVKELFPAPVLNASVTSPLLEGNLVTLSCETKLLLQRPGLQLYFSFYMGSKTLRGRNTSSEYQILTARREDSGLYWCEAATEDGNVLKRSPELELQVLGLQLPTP

In turn, FS315K(81,82,84)E-hFcLALA (Fc fusion) gave a Myostatin IC50 (nM), luciferase gene reporter assay (Smad3, A204 cells) in assay [1] of 0.4 nM. In addition, in assay [2], the Activin A IC50 (nM), luciferase gene reporter assay (Smad3, A204 cells) worked out at 1 nM.

Regarding “FS315WT-hFc (from UniProt P19883 30-344) (Fc fusion)”, the Kd is 0.001 to 0.002 nM in assay [3]; 114 nM in the assay with FcRn receptor; 0.14 nM in assay [4]; 0.001 to 0.002 nM in assay [5]; 0.006 to 0.01 nM in assay [6]. In addition, the Myostatin IC50 (nM), luciferase gene reporter assay (Smad3, A204 cells) in assay [1] turned out to be 0.4 nM. The substance further registered an Activin A IC50 (nM), luciferase gene reporter assay (Smad3, A204 cells) in assay [2] of 0.7 nM.

FS315ΔHBS-hFcLALA (Fc fusion) returned a Myostatin IC50 (nM), luciferase gene reporter assay (Smad3, A204 cells) in assay [1] of 0.4 nM.

Consider “monoFS315K(76,81,82)E-hFcLALA (Fc fusion)”, for which the results for the Kd (in the assay with FcRn receptor; in assay [6]) were 40.6 nM and below 0.004 nM, respectively.

In the case of monoFS315wt-hFcLALA (Fc fusion), the values for the Kd (in the assay with FcRn receptor; in assay [6]) were 12.8 nM and 0.00289 nM, respectively.

The record behind these values is patent US20200247856A1.
